Values joined by “and” are separate entries in the source; they are usually repeats but may differ in a detail not shown here. Equal entries are not always repeated.
T1: Strep-tagged Smc5 (UniProt Q08204 1-1093)
T1 sequence (looked up): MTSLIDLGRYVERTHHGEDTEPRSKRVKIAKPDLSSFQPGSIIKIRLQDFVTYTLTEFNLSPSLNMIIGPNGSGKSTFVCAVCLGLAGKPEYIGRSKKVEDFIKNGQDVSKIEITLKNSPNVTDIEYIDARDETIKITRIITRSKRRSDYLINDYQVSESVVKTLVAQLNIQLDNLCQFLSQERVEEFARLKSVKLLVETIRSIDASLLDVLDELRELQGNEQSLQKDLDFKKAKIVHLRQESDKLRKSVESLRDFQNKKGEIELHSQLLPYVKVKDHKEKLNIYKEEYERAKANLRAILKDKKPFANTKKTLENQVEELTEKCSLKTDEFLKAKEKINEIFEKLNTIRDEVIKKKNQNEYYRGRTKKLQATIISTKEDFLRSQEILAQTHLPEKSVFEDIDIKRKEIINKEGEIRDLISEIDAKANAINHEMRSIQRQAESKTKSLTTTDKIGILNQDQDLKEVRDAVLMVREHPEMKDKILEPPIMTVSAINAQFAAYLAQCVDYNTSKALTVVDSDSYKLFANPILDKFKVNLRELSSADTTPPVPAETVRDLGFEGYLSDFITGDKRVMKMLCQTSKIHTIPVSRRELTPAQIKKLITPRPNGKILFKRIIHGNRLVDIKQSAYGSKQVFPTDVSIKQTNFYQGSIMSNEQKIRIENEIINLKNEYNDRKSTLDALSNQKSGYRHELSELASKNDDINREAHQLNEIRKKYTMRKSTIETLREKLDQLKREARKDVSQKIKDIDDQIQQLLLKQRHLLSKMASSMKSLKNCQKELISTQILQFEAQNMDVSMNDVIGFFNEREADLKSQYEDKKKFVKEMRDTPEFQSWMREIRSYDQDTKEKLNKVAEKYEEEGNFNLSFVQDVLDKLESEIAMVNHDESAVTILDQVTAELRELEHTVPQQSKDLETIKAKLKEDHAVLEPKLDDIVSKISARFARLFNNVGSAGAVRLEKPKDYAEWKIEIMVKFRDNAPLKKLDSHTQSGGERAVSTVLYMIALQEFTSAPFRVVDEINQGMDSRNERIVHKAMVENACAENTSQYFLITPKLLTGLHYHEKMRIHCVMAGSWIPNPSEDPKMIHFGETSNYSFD

T2: His6-Flag-tagged Mph1 (budding yeast), P40562
T2 chain: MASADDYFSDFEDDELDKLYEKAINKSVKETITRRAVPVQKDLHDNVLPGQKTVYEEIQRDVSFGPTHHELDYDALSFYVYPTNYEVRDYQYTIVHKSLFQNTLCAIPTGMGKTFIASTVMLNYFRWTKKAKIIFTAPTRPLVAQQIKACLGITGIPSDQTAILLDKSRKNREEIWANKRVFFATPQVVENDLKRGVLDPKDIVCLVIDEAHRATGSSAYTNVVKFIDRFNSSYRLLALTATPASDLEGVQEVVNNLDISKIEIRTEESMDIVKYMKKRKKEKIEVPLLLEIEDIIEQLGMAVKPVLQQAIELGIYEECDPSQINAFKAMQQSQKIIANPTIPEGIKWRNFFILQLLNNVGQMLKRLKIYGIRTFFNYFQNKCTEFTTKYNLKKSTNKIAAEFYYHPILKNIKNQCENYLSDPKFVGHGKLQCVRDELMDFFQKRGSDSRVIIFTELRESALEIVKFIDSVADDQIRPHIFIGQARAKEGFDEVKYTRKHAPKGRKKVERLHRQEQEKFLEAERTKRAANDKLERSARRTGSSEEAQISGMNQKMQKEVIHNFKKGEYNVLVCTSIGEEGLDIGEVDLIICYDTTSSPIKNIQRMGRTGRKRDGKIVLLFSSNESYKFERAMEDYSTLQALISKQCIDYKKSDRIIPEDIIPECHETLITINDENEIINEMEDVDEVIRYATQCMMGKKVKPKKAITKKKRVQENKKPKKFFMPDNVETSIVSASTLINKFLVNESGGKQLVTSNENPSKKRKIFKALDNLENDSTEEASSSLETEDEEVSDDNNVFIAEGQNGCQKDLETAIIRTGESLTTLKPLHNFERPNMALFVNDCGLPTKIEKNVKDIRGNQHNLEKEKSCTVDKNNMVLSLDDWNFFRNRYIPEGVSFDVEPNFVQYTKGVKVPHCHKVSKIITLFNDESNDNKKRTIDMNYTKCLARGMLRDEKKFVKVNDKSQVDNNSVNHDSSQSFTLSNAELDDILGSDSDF

T3: MBP-tagged Smc5 (WT) (UniProt Q08204 1-1093)
T3 sequence (looked up): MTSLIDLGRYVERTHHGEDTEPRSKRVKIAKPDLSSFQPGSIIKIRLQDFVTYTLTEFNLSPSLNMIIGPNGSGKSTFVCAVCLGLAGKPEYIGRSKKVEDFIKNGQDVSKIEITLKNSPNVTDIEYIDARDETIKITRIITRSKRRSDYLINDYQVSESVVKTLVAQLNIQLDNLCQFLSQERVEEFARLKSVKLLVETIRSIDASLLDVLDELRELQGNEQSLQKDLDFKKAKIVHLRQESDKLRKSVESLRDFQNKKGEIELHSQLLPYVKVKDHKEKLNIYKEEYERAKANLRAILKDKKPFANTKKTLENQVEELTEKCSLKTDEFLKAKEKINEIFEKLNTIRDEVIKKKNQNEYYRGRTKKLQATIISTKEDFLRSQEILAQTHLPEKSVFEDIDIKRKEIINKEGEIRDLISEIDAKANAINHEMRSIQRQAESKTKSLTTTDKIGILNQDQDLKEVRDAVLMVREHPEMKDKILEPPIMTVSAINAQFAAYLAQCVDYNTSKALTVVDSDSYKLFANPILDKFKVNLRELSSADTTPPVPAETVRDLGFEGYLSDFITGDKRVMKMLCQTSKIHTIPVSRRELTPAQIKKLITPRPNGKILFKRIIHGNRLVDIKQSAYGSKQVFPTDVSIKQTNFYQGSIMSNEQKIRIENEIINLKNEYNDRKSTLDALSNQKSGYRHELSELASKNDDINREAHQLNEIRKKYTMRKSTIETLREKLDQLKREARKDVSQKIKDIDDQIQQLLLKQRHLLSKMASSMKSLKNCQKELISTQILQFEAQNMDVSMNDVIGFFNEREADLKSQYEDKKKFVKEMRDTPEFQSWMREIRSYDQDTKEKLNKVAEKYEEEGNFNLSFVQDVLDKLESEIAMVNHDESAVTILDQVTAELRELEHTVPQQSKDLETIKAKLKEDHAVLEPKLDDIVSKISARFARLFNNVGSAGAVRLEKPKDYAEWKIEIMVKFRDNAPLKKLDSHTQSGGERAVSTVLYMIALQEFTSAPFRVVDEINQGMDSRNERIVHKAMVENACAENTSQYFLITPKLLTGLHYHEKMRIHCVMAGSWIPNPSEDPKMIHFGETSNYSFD

B1: His6-Flag-tagged Mph1 (enzyme, budding yeast, UniProt P40562 1-993, looked up)
chain: MASADDYFSDFEDDELDKLYEKAINKSVKETITRRAVPVQKDLHDNVLPGQKTVYEEIQRDVSFGPTHHELDYDALSFYVYPTNYEVRDYQYTIVHKSLFQNTLCAIPTGMGKTFIASTVMLNYFRWTKKAKIIFTAPTRPLVAQQIKACLGITGIPSDQTAILLDKSRKNREEIWANKRVFFATPQVVENDLKRGVLDPKDIVCLVIDEAHRATGSSAYTNVVKFIDRFNSSYRLLALTATPASDLEGVQEVVNNLDISKIEIRTEESMDIVKYMKKRKKEKIEVPLLLEIEDIIEQLGMAVKPVLQQAIELGIYEECDPSQINAFKAMQQSQKIIANPTIPEGIKWRNFFILQLLNNVGQMLKRLKIYGIRTFFNYFQNKCTEFTTKYNLKKSTNKIAAEFYYHPILKNIKNQCENYLSDPKFVGHGKLQCVRDELMDFFQKRGSDSRVIIFTELRESALEIVKFIDSVADDQIRPHIFIGQARAKEGFDEVKYTRKHAPKGRKKVERLHRQEQEKFLEAERTKRAANDKLERSARRTGSSEEAQISGMNQKMQKEVIHNFKKGEYNVLVCTSIGEEGLDIGEVDLIICYDTTSSPIKNIQRMGRTGRKRDGKIVLLFSSNESYKFERAMEDYSTLQALISKQCIDYKKSDRIIPEDIIPECHETLITINDENEIINEMEDVDEVIRYATQCMMGKKVKPKKAITKKKRVQENKKPKKFFMPDNVETSIVSASTLINKFLVNESGGKQLVTSNENPSKKRKIFKALDNLENDSTEEASSSLETEDEEVSDDNNVFIAEGQNGCQKDLETAIIRTGESLTTLKPLHNFERPNMALFVNDCGLPTKIEKNVKDIRGNQHNLEKEKSCTVDKNNMVLSLDDWNFFRNRYIPEGVSFDVEPNFVQYTKGVKVPHCHKVSKIITLFNDESNDNKKRTIDMNYTKCLARGMLRDEKKFVKVNDKSQVDNNSVNHDSSQSFTLSNAELDDILGSDSDF

Tests used:
His6-Flag-tagged Mph1 = target: B1; assay: pull-down
Strep-tagged Smc5 = target: T1, Strep-tagged Smc5; assay: pull-down
[1] = target: Myc-Smc5-Strep-Smc6 complex (UniProt Q08204 1-1093; Q12749 1-1114); assay: pull-down
[2] = target: T2, His6-Flag-tagged Mph1 (budding yeast), …; assay: atomic force microscopy, volume analysis; settings: remark: other sources report otherwise
[3] = target: T2, His6-Flag-tagged Mph1 (budding yeast), …; assay: atomic force microscopy, volume analysis; settings: remark: other sources report otherwise
MBP-tagged Smc5 (WT) = target: T3, MBP-tagged Smc5 (WT); assay: pull-down

Myc-Smc5-Strep-Smc6 complex, sequence (Q12749 whole entry, one chain of several): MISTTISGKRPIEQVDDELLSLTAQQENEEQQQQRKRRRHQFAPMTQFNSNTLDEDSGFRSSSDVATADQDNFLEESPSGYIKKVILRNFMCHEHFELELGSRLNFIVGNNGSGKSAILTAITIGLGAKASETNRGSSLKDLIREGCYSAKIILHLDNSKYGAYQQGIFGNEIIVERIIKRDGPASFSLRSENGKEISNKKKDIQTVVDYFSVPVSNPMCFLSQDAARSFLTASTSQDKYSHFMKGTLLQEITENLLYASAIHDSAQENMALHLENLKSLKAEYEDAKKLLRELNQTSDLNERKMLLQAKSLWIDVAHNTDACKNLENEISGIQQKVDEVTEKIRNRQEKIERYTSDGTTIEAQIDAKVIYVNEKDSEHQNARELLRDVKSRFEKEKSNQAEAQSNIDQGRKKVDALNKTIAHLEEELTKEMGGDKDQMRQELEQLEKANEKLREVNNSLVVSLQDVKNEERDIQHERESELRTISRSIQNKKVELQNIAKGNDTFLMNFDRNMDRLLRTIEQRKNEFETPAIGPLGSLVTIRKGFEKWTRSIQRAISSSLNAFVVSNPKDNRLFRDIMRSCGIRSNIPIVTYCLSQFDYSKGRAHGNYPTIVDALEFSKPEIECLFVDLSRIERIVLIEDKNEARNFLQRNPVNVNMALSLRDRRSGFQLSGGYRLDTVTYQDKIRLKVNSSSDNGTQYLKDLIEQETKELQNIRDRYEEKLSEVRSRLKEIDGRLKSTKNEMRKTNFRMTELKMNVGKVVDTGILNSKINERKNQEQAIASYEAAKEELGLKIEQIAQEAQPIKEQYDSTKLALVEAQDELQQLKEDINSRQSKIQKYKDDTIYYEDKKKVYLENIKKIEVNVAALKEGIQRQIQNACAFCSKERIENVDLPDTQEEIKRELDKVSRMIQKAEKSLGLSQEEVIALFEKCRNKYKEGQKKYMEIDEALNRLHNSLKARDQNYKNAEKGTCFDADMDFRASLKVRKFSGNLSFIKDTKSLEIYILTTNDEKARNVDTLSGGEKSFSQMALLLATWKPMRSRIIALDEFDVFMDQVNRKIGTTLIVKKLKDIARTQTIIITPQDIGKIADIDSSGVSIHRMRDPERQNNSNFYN

binding result (His6-Flag-tagged Mph1)	binding result (Strep-tagged Smc5)	binding result [1]	stoichiometry N (Mph1 monomer equivalents) [2]	stoichiometry N (Mph1 monomer equivalents) [3]	binding result (MBP-tagged Smc5 (WT))	Binder
binds	–	–	–	–	–	MBP-tagged smc5-ΔNC (residues 149-944) (domain or fragment, UniProt Q08204 149-944, looked up) DYLINDYQVSESVVKTLVAQLNIQLDNLCQFLSQERVEEFARLKSVKLLVETIRSIDASLLDVLDELRELQGNEQSLQKDLDFKKAKIVHLRQESDKLRKSVESLRDFQNKKGEIELHSQLLPYVKVKDHKEKLNIYKEEYERAKANLRAILKDKKPFANTKKTLENQVEELTEKCSLKTDEFLKAKEKINEIFEKLNTIRDEVIKKKNQNEYYRGRTKKLQATIISTKEDFLRSQEILAQTHLPEKSVFEDIDIKRKEIINKEGEIRDLISEIDAKANAINHEMRSIQRQAESKTKSLTTTDKIGILNQDQDLKEVRDAVLMVREHPEMKDKILEPPIMTVSAINAQFAAYLAQCVDYNTSKALTVVDSDSYKLFANPILDKFKVNLRELSSADTTPPVPAETVRDLGFEGYLSDFITGDKRVMKMLCQTSKIHTIPVSRRELTPAQIKKLITPRPNGKILFKRIIHGNRLVDIKQSAYGSKQVFPTDVSIKQTNFYQGSIMSNEQKIRIENEIINLKNEYNDRKSTLDALSNQKSGYRHELSELASKNDDINREAHQLNEIRKKYTMRKSTIETLREKLDQLKREARKDVSQKIKDIDDQIQQLLLKQRHLLSKMASSMKSLKNCQKELISTQILQFEAQNMDVSMNDVIGFFNEREADLKSQYEDKKKFVKEMRDTPEFQSWMREIRSYDQDTKEKLNKVAEKYEEEGNFNLSFVQDVLDKLESEIAMVNHDESAVTILDQVTAELRELEHTVPQQSKDLETIKAKLKEDHAVLEPKLDDIVSKISARFARLF
–	binds	binds	7.3 and 12 and 17.4	1.4	binds	B1
